Measurements: patent US20200093883

System: JNK inhibitor according to SEQ ID NO: 172 ("XG-104")

For “c-Jun N-terminal kinase (JNK) in primary mouse cortical neurons”, the “c-Jun phosphorylation (immunoblot), WT neurons stressed with 2 µM Aβ42, 10 µM XG-104” value was “XG-104 showed -29% efficacy in order to decrease c-Jun phosphorylation (FIG. 55 C)”.
